Measured values taken from article PMC10792529 (Proteins, 2023).
“And” between values parts separate entries of the source, which are not always exact repeats. Equal entries are not always repeated.

T1: E. coli outer-membrane transporter FhuA (E. coli, UniProt P06971 34-747)
T1 sequence (looked up): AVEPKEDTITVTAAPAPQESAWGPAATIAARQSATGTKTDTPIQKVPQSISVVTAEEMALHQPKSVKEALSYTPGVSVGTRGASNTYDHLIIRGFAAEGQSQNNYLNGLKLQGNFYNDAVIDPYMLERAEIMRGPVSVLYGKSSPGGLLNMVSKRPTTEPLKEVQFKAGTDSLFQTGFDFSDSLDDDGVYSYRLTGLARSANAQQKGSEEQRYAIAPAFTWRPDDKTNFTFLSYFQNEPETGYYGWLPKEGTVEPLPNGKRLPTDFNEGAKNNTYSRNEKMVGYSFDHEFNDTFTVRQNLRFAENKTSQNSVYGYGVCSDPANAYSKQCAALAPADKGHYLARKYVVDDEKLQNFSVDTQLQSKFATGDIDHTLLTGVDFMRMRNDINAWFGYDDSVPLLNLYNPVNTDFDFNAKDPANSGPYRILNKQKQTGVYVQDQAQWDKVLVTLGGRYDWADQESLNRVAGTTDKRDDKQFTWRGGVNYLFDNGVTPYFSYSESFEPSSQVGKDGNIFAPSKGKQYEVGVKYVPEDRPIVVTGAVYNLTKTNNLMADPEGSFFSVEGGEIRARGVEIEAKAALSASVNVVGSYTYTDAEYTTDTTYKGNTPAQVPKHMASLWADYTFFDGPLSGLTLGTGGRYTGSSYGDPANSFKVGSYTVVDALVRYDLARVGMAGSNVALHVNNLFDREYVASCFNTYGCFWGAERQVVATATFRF

B1: human SUN1 SUN domain (domain or fragment)
chain: GITEAQARAIVNSALKLYSQDKTGMVDFALESGGGSILSTRCSETYETKTALMSLFGIPLWYFSQSPRVVIQPDIYPGNCWAFKGSQGYLVVRLSMMIHPAAFTLEHIPKTLSPTGNISSAPKDFAVYGLENEYQEEGQLLGQFTYDQDGESLQMFQALKRPDDTAFQIVELRIFSNWGHPEYTCLYRFRVHGEPVK
B2: nanobody 8C (VHH)
VHH: EVQLEESGGGLVQAGGSLTLSCAASGFTFDDYAMGWYRQAPGKERVGVSCISRTDGYTYYLDSVKGRFTISTDHAKHTVYLQMNNLKPDDTGLYYCAADADPEYGSRCPDPYYGMDYWGKGILVTVSS
B3: Bacteriophage T5 Receptor Binding Protein RBPpb5 (natural protein)
chain: MSFFAGKLNNKSILSLRRGSGGDTNQHINPDSQTIFHSDMSHVIITETHSTGLRLDQGAGDYYWSEMPSRVTQLHNNDPNRVVLTEIEFSDGSRHMLSGMSMGVGAKAYGIINPQIMSQGGLKTQITASADLSLDVGYFNTGTSGTIPQKLRDGTGCQHMFGAFSGRRGFASSAMYLGGAALYKSAWSGSGYVVADAGTLTIPSDYVRHPGARNFGFNAIYVRGRSCNRVLYGMEGPNYTTGGAVQGASSSGALNFTYNPSNPESPKYSVGFARADPTNYAYWESMGDPNDSANGPIGIYSEHLGIYPSKITWYVTNLVYNGSGYNIDGGLFNGNDIKLSPREFIIKGVNVNNTSWKFINFIEKNFNVGNRADFRDVGCNLSKDSPSTGISGIATFGLPTTESNNAPSIKGGNVGGLHANVVSIYNFLPSASWYVSSNPPKIGNNYGDVWSENLLPLRLLGGSGSTILSGNIVFQGNGSVHVGTVGLDLNSSRNGAIVCTMEFIDDTWLSAGGIGCFNPTEMLSQGAEYGDSRFRIGGNTINKKLHQILSLPAGEYVPFFTIKGTVVNACKLQAAAYNPTPYWVSGLPGSVGQTGYYTLTYYMRNDGNNNISIWLDSSMSNIIGMKACLPNIKLIIQRLT

Assays:
[1] = biological target: HucM, scaffold subunit of the [NiFe]-hydrogenase Huc (Mycobacterium smegmatis); experiment: cryo-EM structure; 833 kDa Huc complex: 8 HucL, 8 HucS, 4 HucM
[2] = biological target: HucSL heterodimer (Mycobacterium smegmatis); experiment: as above
[3] = biological target: Mycobacterium smegmatis MceG (Mycobacterium smegmatis); experiment: cryo-EM structure
[4] = biological target: cytosolic domain of the major export gate protein YscV (Yersinia enterocolitica); experiment: crystal structure; 9:9:9 YscV:YscX:YscY complex, 4.1 Å, 18 copies of the 1:1:1 complex in the asymmetric unit
[5] = biological target: nudivirus polyhedrin (occlusion body protein of Tipula oleracea nudivirus) (Tipula oleracea nudivirus); experiment: crystal structure
[6] = biological target: tyrosine O-methyltransferase MfnG from Streptomyces drozdowiczii (Streptomyces drozdowiczii); experiment: crystal structure; MfnG with SAH and soaked L-Tyr; five crystal forms with one to four dimers per asymmetric unit
human SUN1 SUN domain = biological target: B1; experiment: crystal structure; SUN1-KASH6 complex, nine SUN domains and six KASH peptides; conditions: both partners purified
[7] = biological target: the molecule itself; experiment: as above
[8] = biological target: phosphodiesterase domain of 2',3'-cyclic nucleotide 3'-phosphodiesterase (CNPase) (Mus musculus (assumed; species not …, UniProt P16330); experiment: crystal structure; nanobodies co-crystallized with the phosphodiesterase domain of CNPase; conditions: both partners purified
phosphodiesterase domain of 2',3'-cyclic nucleotide 3'-phosphodiesterase (CNPase) (Mus musculus, sequence (P16330 whole entry, looked up, the tested form may be a part): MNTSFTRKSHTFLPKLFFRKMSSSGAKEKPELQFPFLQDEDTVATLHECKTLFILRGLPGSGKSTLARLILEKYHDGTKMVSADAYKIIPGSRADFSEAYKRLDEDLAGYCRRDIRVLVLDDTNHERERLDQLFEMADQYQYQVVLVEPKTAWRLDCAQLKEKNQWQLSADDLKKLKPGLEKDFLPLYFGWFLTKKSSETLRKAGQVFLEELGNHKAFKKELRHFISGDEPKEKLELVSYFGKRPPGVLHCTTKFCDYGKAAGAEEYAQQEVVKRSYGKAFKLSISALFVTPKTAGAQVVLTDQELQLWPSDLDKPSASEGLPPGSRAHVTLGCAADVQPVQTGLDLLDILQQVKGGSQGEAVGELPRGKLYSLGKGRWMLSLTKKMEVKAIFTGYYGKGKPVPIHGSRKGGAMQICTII

[9] = biological target: T1, E. coli outer-membrane transporter FhuA; experiment: cryo-EM structure; conditions: both partners purified

**Q.** How did the stoichiometry N [1] turn out when “HucM, scaffold subunit of the [NiFe]-hydrogenase Huc (natural protein)” was run?
**A.** 4

**Q.** For HucSL heterodimer (complex), which stoichiometry N [2] is on record?
**A.** 2

**Q.** Mycobacterium smegmatis MceG (enzyme) was tested. Which stoichiometry N [3] did it give?
**A.** 2

**Q.** YscX:YscY heterodimer (complex) was tested. Which stoichiometry N (YscX:YscY complexes per YscV nonamer) [4] did it give?
**A.** 9

**Q.** For “cytosolic domain of the major export gate protein YscV (domain or fragment)”, which stoichiometry N [4] is on record?
**A.** 9

**Q.** For “nudivirus polyhedrin (occlusion body protein of Tipula oleracea nudivirus) (natural protein)”, which stoichiometry N [5] is on record?
**A.** 2

**Q.** How did the stoichiometry N [6] turn out when “tyrosine O-methyltransferase MfnG from Streptomyces drozdowiczii (enzyme)” was run?
**A.** 2

**Q.** For TGQLFQKSVDAAPTQQEDSWTSLEHILWPFTRLRHNGPPPV [KASH6 peptide, the KASH domain of JAW1/LRMP], which “stoichiometry N” value (human SUN1 SUN domain) is on record?
**A.** 2 KASH6 peptides per SUN1 trimer

**Q.** With B1 as the molecule, how does the “stoichiometry N” value [7] read?
**A.** 3 and 9

**Q.** Does B2 bind [8]?
**A.** binds

**Q.** Does B3 bind [9]?
**A.** binds
